In the nanobody polyreactivity screen of Harvey et al. (2022):

Test: yeast display, Sf9 membrane polyspecificity reagent, FACS + sequencing; frameworks hold sequencing errors
In short: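 Using colony PCR, genes from sorted yeast display clones were amplified, then sequenced on MiSeq at 2 × 250 and filtered by CDR length. The clones had been stained with 10% biotinylated, detergent-solubilized Sf9 membrane reagent for 1 hour at 4 °C and sorted by FACS into low and high (top ~1%) gates on anti-HA and streptavidin fluorescence. Polyreactivity labels come from the gate of origin.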

Sequence: QVQLVESVGCLVQAGGSLRLSCAASGFNFGYNAMGWYRQAPGKERELVAAITWIGGTTYYADSVKGRFTISRYNAKYTVYLQMNILKPEDTAVDYCNALRRGVRDPYGYWGLGTQVTVSS
- polyreactivity (PSR sort gate): high polyreactivity

Sequence: QVQLVESVGCLVQAGGSLRLSCDASGIIFNQNTMGWYRPAPGKERQLVAAITSSVGSTYYADSVKGRFTISRDNAKNTVYLQMNSLKPEVTAVYYCAATGWVYRRSRDYWGQGTQVTVSS
- polyreactivity (PSR sort gate): low polyreactivity

Sequence: QVQLVESVGCLVQARGSLRLSCAASGFTFPHYAMGWYRQAPGKERELVAVISWSGSSTYYADSVKGRFTISRDNAKNTVYLKMNSLKPVVNAVYYCNTRKLYQVDYDYWGQGSQVTVSS
- polyreactivity (PSR sort gate): high polyreactivity

Sequence: QVQLVESVGGIVQAGGSLRLSCAASGSTRYNAMGWYIQAPGKERELVAYIRGNAGSTYYADSVKGRFTISRDNAKNTVYLQMNSLKPEDTAVYYCNARYWYRYGGYKPVGGYYWGQGTQVTVSS
- polyreactivity (PSR sort gate): high polyreactivity

Sequence: QVQLVESVGGLDQAGGSLPVSCAASGLTFTGYTMGWYRQAPWKERELVATISGSGGNTDYADSVKARFTISRDKAKNTVDLQMNSLKPEDTAVYYCASRRSGPLVLYYYWGQGTQVTVSS
- polyreactivity (PSR sort gate): low polyreactivity

Sequence: QVQLVESVGGLDQAGGSLRLTCAASVSIFRNYAMGWYRQAPGKERELVASIRYSGGRTNYADSVKGRFTISRDNAKNTVYVPMNSLTPEDTAVYYCAAATHYWYFYSFKDKSGFRGYYWGQGTHVTVSS
- polyreactivity (PSR sort gate): high polyreactivity

Sequence: QVQLVESVGGLFQAGGSLRLSCAASGSTFDYYSMVWYRQAPGKERELVAGIDSAGSTNYADSVKGRFTISRDNAKNTVYLQMNSLKTGRYRGLYCNVGKTITTYAFPTFDYWGQGTQVTVSS
- polyreactivity (PSR sort gate): low polyreactivity

Sequence: QVQLVESVGGLFQAGRSLRLSGAASGTTFVWNAMGWYRPAPGKERELVATITLSTGSTYYADSVKGRFTISRDNAKNSVYLQMNSLKPEDTAVYYGNTEIYVDIISDYGYWGQGTQVTVSS
- polyreactivity (PSR sort gate): low polyreactivity

Sequence: QVQLVESVGGLLQAGGSLRVSCAASGFTFYRYAMGWYRQAPGKERELVAAITRGGSTNYADSVKRRFTISRDNAKKTVYLQMNSLKPEDTAVYYCAVVSQRTPLRGDYWGQGTQVTVSS
- polyreactivity (PSR sort gate): high polyreactivity

Sequence: QVQLVESVGGLVEAGGSLRLSCASSGFISSHYAMGWYRQAPGKESELVAAITSGGSTYYADSVKGRFTISRDNAKNTVYLQMNSLKPEDTAVYYCAAYYRRWPRRYDYWGQGTQVTVSS
- polyreactivity (PSR sort gate): high polyreactivity

Sequence: QVQLVESVGGLVEAGRILRLSCAATGSTFPYNDLGWYRQAPGKQRELVADISGDSGSTYYADSVKGRFTISRDNAKNTVYLQMKSLKPEDTAVYYCAAEGLHYAGDYGTGYDNWGQGTQLTVSS
- polyreactivity (PSR sort gate): low polyreactivity

Sequence: QVQLVESVGGLVQAGGCLRITCAASGSTSDANAMGWYRTATGKERELVAAITTGGSTNYADSVKGRFTISRDNAKNTVFLQMNSLKPEDTAVFYCAVDLLRMTGDRGHDYWGQGTQVTVSS
- polyreactivity (PSR sort gate): low polyreactivity

Sequence: QVQLVESVGGLVQAGGILRLSCAASGRTFTLNAMGWYRQAPGKERELVATISRRGGSTYYADSVKGRFTISRDNAKNTVYLQMISLKPEDTAVYDCNVDRLGKRYDNWGQGSQVTVSS
- polyreactivity (PSR sort gate): low polyreactivity

Sequence: QVQLVESVGGLVQAGGILRLSCAASGYTFGGSAKGWYRPAPGKERELVAAITRRGGSTYYADSVKGRFTISRDNAKNTVYLQMNSLKPEDTAVYYCAKRSGSYSYPAVGGWGLGYWGHGTQVTVSS
- polyreactivity (PSR sort gate): high polyreactivity

Sequence: QVQLVESVGGLVQAGGRLRLSCAASAFIFTSYAMGLYRQAPGKDRELVAAISKRGGSTYYADSVKGRFTISRDYAKNTDYLQMHSLKPEDTAVYYCATRYPQPYSPGYSYDYWGQGTQVTVSS
- polyreactivity (PSR sort gate): high polyreactivity

Sequence: QVQLVESVGGLVQAGGSLPLTCAASGYTIGPNVMGWYRQAPGKERELVASITSGTSTYYADSVKGRFTISRDNAKNTVYLQMNSLKPEDTAVYYCAAKYSFGRTRWYGYWGQGTQVTVSS
- polyreactivity (PSR sort gate): high polyreactivity

Sequence: QVQLVESVGGLVQAGGSLRLICAASGSIFDLNAMGWYRQAPGKEREFVAAISSGGGTYYADSVKGRFTISRDNAKNTVYLQKNSLKPEDTAVYYCAFELPELYYYFAYEYWGQGTQVTVSS
- polyreactivity (PSR sort gate): high polyreactivity

Sequence: QVQLVESVGGLVQAGGSLRLRCSASGSIFKYNAMGWYRQAPGKVRELVADITRSGGRTYYADSVKGRFTISRDNEKNTVYVQMNSLKTEDTAVYYCYAVTPTTLGDYWGQGTQVTVSS
- polyreactivity (PSR sort gate): high polyreactivity

Sequence: QVQLVESVGGLVQAGGSLRLSCAASGFIFFFYAMGWYRQAPGKERELVAAISDGVSTYYADSVKGRFTISSDNAKNTVYLQMNSLKPEDTAVYYCAVSRGDEPEFDYWGQGTQVTVSS
- polyreactivity (PSR sort gate): low polyreactivity

Sequence: QVQLVESVGGLVQAGGSLRLSCAASGFIILINVMGWYRKAPGKERELVAVITGGGTTNYADSVKGRFTISRDNAKNTVYLQMNSLKPEDTAVYYCAVDAGAGDNDYWGQGTQVTVSS
- polyreactivity (PSR sort gate): low polyreactivity

Sequence: QVQLVESVGGLVQAGGSLRLSCAASGFTFQYYALGWYRQAPGKERELVAAISWTGGRTYYADSVKGRFTISRDNAKNTVYLQMNSLKPEDTAVYYCNKVLYYYNSGEYDYWGQGTQVTVSS
- polyreactivity (PSR sort gate): high polyreactivity

Sequence: QVQLVESVGGLVQAGGSLRLSCAASGFTFTWYDMGWYRQAPGKERELVAAITTDGGSTYYADSVKGRFTISRDNATNTVYLQMNSLKPEDTEVYYCAAAGYLPFPVEYEYWGQGTQVTVSS
- polyreactivity (PSR sort gate): high polyreactivity

Sequence: QVQLVESVGGLVQAGGSLRLSCAASGFTFYVYAMGWYRQAPGKERELVAAISRGGSTYYADSVKGRFTISRDNAKNTVYLQMNSLKPEDTAVYYCNRVPYVSSSKVRYSNGFDYWGQGTLVTVSS
- polyreactivity (PSR sort gate): low polyreactivity

Sequence: QVQLVESVGGLVQAGGSLRLSCAASGIIFRANAMGWYRQAPGKERELVAAISGRGSSTTYADSVKGRFTISRDNAKNTVYLQMNSLKPEDTAVYYCAAGYGKWFATWRSQKYDYWGQGTQVTVSS
- polyreactivity (PSR sort gate): high polyreactivity

Sequence: QVQLVESVGGLVQAGGSLRLSCAASGITFFNYAMGWYRQAPGKERELVARINWSGGSTYYADSVTGRFTISRDNAKNTVYLQMNSLKPEDTAVYYCAARYWLPRGRRYDYWGQGTQVTVSS
- polyreactivity (PSR sort gate): high polyreactivity

Sequence: QVQLVESVGGLVQAGGSLRLSCAASGITFPYYAMGWYRQAPGKERELVAAISRGDSTYYADSVKGRFTISRDNAKNTVYLQMNSLKPEDTAVYYCAARYGRYWSSCGSWTPYGYWGQGTQVTVSS
- polyreactivity (PSR sort gate): high polyreactivity

Sequence: QVQLVESVGGLVQAGGSLRLSCAASGITIADNAMGWYRQAPRKERELVAAITSGGSTYYADAVKGRFTISRDNAKNTVYFQLNSLKPEDTGVYYCIVRVRRLFYWARLVAYDYWGQGSQVTVSS
- polyreactivity (PSR sort gate): high polyreactivity

Sequence: QVQLVESVGGLVQAGGSLRLSCAASGLIFASYAMGWYRQAPGKERELVAAISWSGGSTYYADSVKGRFTISRDYAKITVYLQMNSLKPEDTAVYYCAAIRYAYGSLDYWGQGTQVTVSS
- polyreactivity (PSR sort gate): high polyreactivity

Sequence: QVQLVESVGGLVQAGGSLRLSCAASGRIFAPNAMGRYRQAPGKERELVAAITSRGSRTYYADSVKGRFTISRDIAKNTVYLQMKSLKPEDTAVYYCATPYRAPWGTARNYGLYYYWGQGTQVTVSS
- polyreactivity (PSR sort gate): high polyreactivity

Sequence: QVQLVESVGGLVQAGGSLRLSCAASGRIFGYNAMGWYRQAPGKEWELVAGITSVGRTYYADSVNGRFTISRDNAKNTVYLQMNSLKPEDTAVYYCNAASYSLAVTAEFEDMDYWGQGTQVTVSS
- polyreactivity (PSR sort gate): low polyreactivity

Sequence: QVQLVESVGGLVQAGGSLRLSCAASGRIFRKYDMGWYRQAPGKERELVAAISGTGITYYADSVKGRFTISRDNAKNTVYLQMNSLKPEDTAVYYCARGSKPRAWSWAYPSATSIYDYWGQGTQVTVSS
- polyreactivity (PSR sort gate): low polyreactivity
